# From patent publication US20100273186A1, “SPLIT MUTANT HYDROLASE FUSION REPORTER AND USES THEREOF” (Promega Corporation, priority 2007, published 2010)
# Experiments:
# [1] = Kinetic labeling studies, fluorimage gel analysis; assay type: binding; details: 10 ng protein, refined time-course, fluorimaged gel
# Procedure: To facilitate comparative kinetic studies several improved DhaA mutants were selected for purification using a Glutathione Sepharose 4B resin. In general, production of DhaA.H272F and DhaA.D106C based fusions in E. coli was robust, although single amino acid changes may have negative consequences on the production of DhaA. As a result of this variability in protein production, the overall yield of the DhaA mutants also varied considerably (1-15 mg/mL). Preliminary kinetic labeling studies were performed using several DhaA.H272F derived mutants. Many, if not all, of the mutants chosen for analysis had faster labeling kinetics than the H272F parent. In fact, upon closer inspection of the time course, the labeling of several DhaA mutants including the first generation mutant YL and the two second generation mutants, A7YM and H11YL mutants appeared to be complete by 2 minutes. A more expanded time course analysis was performed on the DhaA.H272F A7 and the two second generation DhaA.H272F mutants A7YM and H11YL. […] The fluorescent bands on gel were quantitated and the relative rates of product formation determined. […] Under these labeling conditions a linear initial rate could be measured. Quantitation of the fluorimaged gel data allowed second order rate constants to be calculated. […]
# [2] = Fluorescence polarization (FP) labeling assay; assay type: binding
# Source text: Fluorescence polarization (FP) is ideal for the study of small fluorescent ligands binding to proteins. It is unique among methods used to analyze molecular binding because it gives direct nearly instantaneous measure of a substrate bound/free ratio. Therefore, an FP assay was developed as an alternative approach to fluorimage gel analysis of the purified DhaA mutants. […] To place this rate in perspective, approximately 42 and 420-fold more A7 and parental, i.e., DhaA.H272F, protein, respectively, was required in the reaction to obtain measurable rates. Under the labeling conditions used, it is evident that the H11YL mutant was also considerably faster than A7 and parental, DhaA.H272F proteins with the fluorescein-based substrate. However, it appears that labeling of H11YL with carboxyfluorescein-C10H21NO2—Cl is markedly slower than labeling with the corresponding carboxytetramethylrhodamine-C10H21NO2—Cl substrate. Four-fold more H11YL protein was used in the carboxyfluorescein-C10H21NO2—Cl reaction (150 nM) versus the carboxytetramethylrhodamine-C10H21NO2—Cl reaction (35 nM), yet the rate observed appeared to be qualitatively slower than the observed carboxytetramethylrhodamine-C10H21NO2—Cl rate.
# Based on the sensitivity and truly homogenous nature of this assay, FP was used to characterize the labeling properties of the purified DhaA mutants with the fluorescently coupled substrates. The data from these studies was then used to calculate a second order rate constant for each DhaA mutant-substrate pair. […] However, in each case labeling was slower with the carboxyfluorescein-C10H21NO2—Cl substrate. All of the first generation DhaA mutants characterized by FP had rates that ranged from 7 to 3555-fold faster than the corresponding parental protein. By far, the biggest impact on labeling rate by a single amino acid substitution occurred with the three replacements at the 273 position (Y273L, Y273M, and Y273C) in the DhaA.H272F background. Nevertheless, in each of the first generation DhaA.H272F mutants tested, labeling with the carboxyfluorescein-C10H21NO2—Cl substrate always occurred at a slower rate (1.6 to 46-fold). […] The H11YL rate constant of 2.2×10^6 M^−1 sec^−1 was nearly identical to the rate constant calculated for a carboxytetramethylrhodamine-coupled biotin/streptavidin interaction. This value is consistent with an on-rate of 5×10^6 M^−1 sec^1 determined for a biotin-streptavidin interaction using surface plasmon resonance analysis (Qureshi et al., 2001). Several of the second generation mutants also had improved rates with the carboxyfluorescein-C10H21NO2—Cl substrate, however, as noted previously, these rates were always slower than with the carboxytetramethylrhodamine-C10H21NO2—Cl substrate. […]
# [3] = Thermostability of mutant DhaAs; assay type: physicochemical
# Procedure: Moreover, V7>V6>V7F>V3>HT2 for thermostability. For example, under some conditions (30 minute exposure to 48° C.) purified V7F loses 50% of its activity, while V7 still maintains 80% activity. The thermostability discrepancy between the two is more dramatic when they V7 and V7F are expressed in E. coli and analyzed as lysates.
# [4] = target: T1, rapamycin-mediated FRB/FKBP protein-protein interaction (Homo sapiens, UniProt P42345+P62942); assay: Protein complementation labeling (PCL) in vitro with split HT2; assay type: biochemical; details: with or without 1 μM rapamycin, 0.1 μM TMR ligand
# T1 construct: made in house; host or cells: cell-free: RiboMax transcription followed by Wheat Germ Plus translation
# Procedure: The rapamycin-mediated FRB/FKBP protein-protein interaction and a mutant DhaA were employed in a PCL. FRB and FKBP will only interact when rapamycin is present. Therefore, if PCL is successful, the reconstituted reporter is labeled only when the fusion proteins are incubated together in the presence of rapamycin.
# Two pF9 (Kan) vectors were generated which contained either FRB or FKBP ORF plus the linker sequence (GlyGlyGlyGlySer)2 (SEQ ID NO:14 represents GlyGlyGlyGlySer) upstream of the SefI/PmeI sites. A mutant DhaA gene (HT2) at positions corresponding to those useful to prepare Renilla luciferase fragments for PCS (see Example 2 and FIG. 7) with FRB-N terminal and FKBP-C terminal fusions. HT2 N- and C-termini halves were amplified using PCR primers and cloned into the SefI/PmeI sites. PCL was performed in vitro by expressing each clone individually using RiboMax followed by Wheat Germ Plus reactions (HT2). Protein was expressed with or without FluoroTect™. FluoroTect™ labeling ensured that all proteins were expressed in approximately equal amounts (data not shown). Unlabeled proteins were then incubated alone or with the appropriated partner with or without 1 μM rapamycin. Ten μl of these products were then incubated with 0.1 μM of a TMR labeled ligand for the mutant dehalogenase, for 2 hours in the dark. […]
# [5] = target: T1, rapamycin-mediated FRB/FKBP protein-protein interaction; assay: PCL in transiently transfected CHO cells; assay type: cell-based; details: +/−1 μM rapamycin, 1.0 μM HaloTag TMR ligand
# Procedure: For transient transfections, CHO cells were plated in a 6 well plate and transfected in duplicate using TransIT®-CHO. The next day, cells were incubated +/−1 μM rapamycin for 2.5 hours followed by 1.0 μM HaloTag® TMR ligand for 1 hour. Cells were washed in PBS, trypsinized, pelleted and mechanically lysed in 200 ul PBS with protease inhibitor and RQDNase I. Normalized amounts of proteins were microwaved for 30 seconds on high and run on a denaturing NuPAGE® gel.
# T1 sequence (P42345 2012-2144 limits assumed): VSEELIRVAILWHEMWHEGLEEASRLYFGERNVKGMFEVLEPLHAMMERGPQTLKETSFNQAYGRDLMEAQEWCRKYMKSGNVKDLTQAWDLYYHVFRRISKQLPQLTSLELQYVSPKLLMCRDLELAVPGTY
# T1 sequence (P62942 whole entry): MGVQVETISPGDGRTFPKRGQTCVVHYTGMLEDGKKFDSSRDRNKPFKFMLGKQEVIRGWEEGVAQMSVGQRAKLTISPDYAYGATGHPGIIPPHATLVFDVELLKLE
molecule,measurement,setting,value
"H11YL: second generation DhaA.H272F mutant, H11 recombined with Y273L; SEQ ID NO:18 (protein) SEIGTGFPFDPHYVEVLGERMHYVDVGPRDGTPVLFLHGNPTSSYLWRNIIPHVAPSHRCIAPDLIGMGKSDKPDLDYFFDDHVRYLDAFIEALGLEEVVLVIHDWGSALGFHWAKRNPERVKGIACMEFIRPIPTWDEWPEFARETFQAFRTADVGRELIIDQNAFIEGALPMGVVRPLTEVEMDHYREPFLKPVDREPLWRFPNELPIAGEPANIVALVEAYMNWLHQSPVPKLLFWGTPGVLIPPAEAARLAESLPNCKTVDIGPGLFLLQEDNPDLIGSEIARWLPAL",second order rate constant for labeling,[1],500000 M⁻¹ s⁻¹
same,carboxyfluorescein-C10H21NO2—Cl labeling rate slower/lower than carboxytetramethylrhodamine-C10H21NO2—Cl labeling rate,[2],100 fold
same,calculated second order rate constant,[2]; FP,2.2e+06 M⁻¹ s⁻¹
same,second order rate constant compared with the DhaA.H272F parent,[2]; FP,over four orders of magnitude higher
same,thermostability ranking,[3],V7>V6>V7F>V3>HT2
same,TMR labeling,[4],labeled
same,TMR labeling in CHO cells,[5],labeled irrespective of rapamycin addition
